Test [1] addresses h2ax_human H2AX (UniProt P16104).
Test [2] has the same target. This is another data set of the same source.
Test [3] has the same target. This is another data set of the same source.

Consider “Mediator of DNA damage checkpoint protein 1 (Homo sapiens), Q14676 R1933Q”, for which the “effect of a mutation on the interaction” value in test [1] is “disrupting interaction”. Consider “Mediator of DNA damage checkpoint protein 1 (Homo sapiens), Q14676 K1936M”, for which the “effect of a mutation on the interaction” value in test [2] is “decreasing interaction”; in test [3], “disrupting interaction”.

For “Mediator of DNA damage checkpoint protein 1 (Homo sapiens), Q14676 T1898V”, the “effect of a mutation on the interaction” value in test [1] is given as “decreasing interaction”.

Source of the values: IntAct's records for PubMed 16377563.
